From PMC5450233, “SKIP controls lysosome positioning using a composite kinesin-1 heavy and light chain-binding domain” (Journal of Cell Science, 2017)

B1: SKIP(1-310) (domain or fragment, UniProt Q8IWE5 1-310, looked up)
chain: MEPGEVKDRILENISLSVKKLQSYFAACEDEIPAIRNHDKVLQRLCEHLDHALLYGLQDLSSGYWVLVVHFTRREAIKQIEVLQHVATNLGRSRAWLYLALNENSLESYLRLFQENLGLLHKYYVKNALVCSHDHLTLFLTLVSGLEFIRFELDLDAPYLDLAPYMPDYYKPQYLLDFEDRLPSSVHGSDSLSLNSFNSVTSTNLEWDDSAIAPSSEDYDFGDVFPAVPSVPSTDWEDGDLTDTVSGPRSTASDLTSSKASTRSPTQRQNPFNEEPAETVSSSDTTPVHTTSQEKEEAQALDPPDACTEL
notes: SKIP (PLEKHM2), residues 1-310; also called SKIP(1-310) with GST removed by 3C protease; source: E. coli, purified as a GST fusion, GST cleaved with 3C protease
B2: GST–KHC(815-955) (domain or fragment)
chain: not shown
notes: 3C protease site between GST and KHC (pMW-GST); source: E. coli BL21(DE3), purified (glutathione–Sepharose beads)

Assays:
Conditions in all cases: both partners purified
[1] = target: B2; experiment: pull-down; GST–KHC(815-955) (0.5 nmol) on glutathione beads incubated with increasing concentrations of SKIP(1-310) in solution (up to 3.5 μM); SDS-PAGE, Coomassie, densitometry; one-site specific binding model with Hill slope; non-equilibrium, value to be interpreted with caution
[2] = target: B1; experiment: pull-down; GST–KHC truncations (0.5 nmol) on glutathione–Sepharose beads incubated with 300 μl of 1.2 μM SKIP(1-310) for 2 h at 4°C; 25 mM HEPES pH 7.5, 150 mM NaCl, 5 mM β-mercaptoethanol; Coomassie-stained SDS-PAGE
[3] = target: B1; experiment: pull-down; GST–KHC(815-955) (0.5 nmol) on glutathione beads incubated with increasing concentrations of SKIP(1-310) in solution (up to 3.5 μM); SDS-PAGE, Coomassie, densitometry; one-site specific binding model with Hill slope; non-equilibrium, value to be interpreted with caution

GST–KHC(815-955), sequence (P56536 815-955): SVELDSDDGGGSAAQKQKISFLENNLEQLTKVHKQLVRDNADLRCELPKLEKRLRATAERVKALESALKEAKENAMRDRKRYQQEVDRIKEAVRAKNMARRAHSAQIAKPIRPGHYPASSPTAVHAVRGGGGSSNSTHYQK

binding result [2] | Binder | also measured
– | B1 | stoichiometry N [1]: 1
binds | GST–KHC(815-917) (domain or fragment, source: E. coli BL21(DE3), purified (glutathione–Sepharose beads)) not shown | –
– | B2 | Kd [3]: ~1500 nM
binds | GST–KHC(876-917) (domain or fragment, source: E. coli BL21(DE3), purified (glutathione–Sepharose beads)) not shown | –
